Targets include FGFR1(h) (Homo sapiens, UniProt P11362); LOK(h) (Homo sapiens, UniProt O94804); ZIPK(h) (Homo sapiens, UniProt O43293); CLK3(h) (Homo sapiens, UniProt P49761); Ab1(T315I)(h) (Homo sapiens, UniProt P00519, T315I); Tie2(Y897S)(h) (Homo sapiens, UniProt Q02763, Y897S).
Common to all, as to assay: Kinase Profiling Assay
What all share (type): biochemical
Holding throughout (conditions): for % activity: 100 μM

The target of the next experiment is T1, DCAMKL2(h) (Homo sapiens, UniProt Q8N568).
T1 sequence (Q8N568 1-766): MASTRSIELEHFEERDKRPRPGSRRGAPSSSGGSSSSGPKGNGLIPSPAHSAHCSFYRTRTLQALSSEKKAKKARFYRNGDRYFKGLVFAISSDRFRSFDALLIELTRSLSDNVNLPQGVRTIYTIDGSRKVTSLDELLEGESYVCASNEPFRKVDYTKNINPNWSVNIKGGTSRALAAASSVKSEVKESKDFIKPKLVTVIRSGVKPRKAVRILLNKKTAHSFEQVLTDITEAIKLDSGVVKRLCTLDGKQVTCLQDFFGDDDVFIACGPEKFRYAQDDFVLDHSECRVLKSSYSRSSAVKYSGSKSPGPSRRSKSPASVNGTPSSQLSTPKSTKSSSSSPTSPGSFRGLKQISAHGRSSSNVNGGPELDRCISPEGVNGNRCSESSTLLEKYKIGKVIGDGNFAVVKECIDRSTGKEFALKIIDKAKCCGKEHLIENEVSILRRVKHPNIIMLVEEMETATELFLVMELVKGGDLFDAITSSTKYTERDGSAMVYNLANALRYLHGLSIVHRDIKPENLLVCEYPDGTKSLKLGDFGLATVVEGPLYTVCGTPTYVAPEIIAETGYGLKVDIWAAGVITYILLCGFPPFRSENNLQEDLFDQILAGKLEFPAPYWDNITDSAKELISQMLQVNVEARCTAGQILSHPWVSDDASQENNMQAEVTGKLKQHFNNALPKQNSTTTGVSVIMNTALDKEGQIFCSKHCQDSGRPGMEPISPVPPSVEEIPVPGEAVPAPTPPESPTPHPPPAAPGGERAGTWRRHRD

In a further experiment the target is T2, PKG1β(h) (Homo sapiens, UniProt Q13976).
T2 sequence (Q13976 1-686 isoform Q13976-2): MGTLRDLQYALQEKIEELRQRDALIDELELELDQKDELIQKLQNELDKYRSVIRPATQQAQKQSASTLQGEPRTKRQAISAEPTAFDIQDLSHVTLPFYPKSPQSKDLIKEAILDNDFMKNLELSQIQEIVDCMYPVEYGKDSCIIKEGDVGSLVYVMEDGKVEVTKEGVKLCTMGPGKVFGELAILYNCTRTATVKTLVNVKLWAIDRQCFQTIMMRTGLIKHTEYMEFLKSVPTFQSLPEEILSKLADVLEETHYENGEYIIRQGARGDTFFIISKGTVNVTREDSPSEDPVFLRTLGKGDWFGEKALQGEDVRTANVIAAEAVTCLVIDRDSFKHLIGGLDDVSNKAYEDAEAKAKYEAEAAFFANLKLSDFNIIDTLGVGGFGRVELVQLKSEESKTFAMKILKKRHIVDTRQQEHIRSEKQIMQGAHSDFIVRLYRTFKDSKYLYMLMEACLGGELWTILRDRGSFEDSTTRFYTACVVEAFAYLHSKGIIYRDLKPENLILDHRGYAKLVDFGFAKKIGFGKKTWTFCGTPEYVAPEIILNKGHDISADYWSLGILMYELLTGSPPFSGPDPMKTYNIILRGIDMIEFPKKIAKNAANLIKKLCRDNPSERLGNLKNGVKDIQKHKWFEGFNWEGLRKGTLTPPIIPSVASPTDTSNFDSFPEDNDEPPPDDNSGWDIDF

The target in the next experiment is T3, GCK(h) (Homo sapiens, UniProt Q12851).
T3 sequence (Q12851 1-820): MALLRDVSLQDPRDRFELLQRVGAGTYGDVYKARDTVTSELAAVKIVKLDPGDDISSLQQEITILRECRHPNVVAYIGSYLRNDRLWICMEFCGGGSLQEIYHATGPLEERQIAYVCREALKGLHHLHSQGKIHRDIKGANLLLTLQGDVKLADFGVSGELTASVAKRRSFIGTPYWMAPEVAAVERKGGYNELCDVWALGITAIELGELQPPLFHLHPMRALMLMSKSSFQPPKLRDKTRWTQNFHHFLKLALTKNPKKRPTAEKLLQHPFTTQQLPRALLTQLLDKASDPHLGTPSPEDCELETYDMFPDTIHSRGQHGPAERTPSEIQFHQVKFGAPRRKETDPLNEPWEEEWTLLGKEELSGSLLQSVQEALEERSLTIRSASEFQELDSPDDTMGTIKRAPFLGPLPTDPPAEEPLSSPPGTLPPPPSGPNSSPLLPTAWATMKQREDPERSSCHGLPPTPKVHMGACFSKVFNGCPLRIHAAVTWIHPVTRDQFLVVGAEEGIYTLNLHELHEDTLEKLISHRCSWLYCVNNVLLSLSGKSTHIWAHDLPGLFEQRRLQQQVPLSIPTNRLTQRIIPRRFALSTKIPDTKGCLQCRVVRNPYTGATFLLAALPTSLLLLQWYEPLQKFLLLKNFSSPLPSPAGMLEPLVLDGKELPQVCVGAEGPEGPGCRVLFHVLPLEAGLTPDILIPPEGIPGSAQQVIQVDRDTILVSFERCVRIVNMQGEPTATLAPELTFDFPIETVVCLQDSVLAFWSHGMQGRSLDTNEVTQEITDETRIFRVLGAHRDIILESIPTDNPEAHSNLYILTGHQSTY

The values that follow come from patent US10087225B2, “Formulation of MK2 inhibitor peptides” (MOERAE MATRIX, INC., priority 2015, dated 2018).

Chain of FGFR1(h) (P11362 22-822): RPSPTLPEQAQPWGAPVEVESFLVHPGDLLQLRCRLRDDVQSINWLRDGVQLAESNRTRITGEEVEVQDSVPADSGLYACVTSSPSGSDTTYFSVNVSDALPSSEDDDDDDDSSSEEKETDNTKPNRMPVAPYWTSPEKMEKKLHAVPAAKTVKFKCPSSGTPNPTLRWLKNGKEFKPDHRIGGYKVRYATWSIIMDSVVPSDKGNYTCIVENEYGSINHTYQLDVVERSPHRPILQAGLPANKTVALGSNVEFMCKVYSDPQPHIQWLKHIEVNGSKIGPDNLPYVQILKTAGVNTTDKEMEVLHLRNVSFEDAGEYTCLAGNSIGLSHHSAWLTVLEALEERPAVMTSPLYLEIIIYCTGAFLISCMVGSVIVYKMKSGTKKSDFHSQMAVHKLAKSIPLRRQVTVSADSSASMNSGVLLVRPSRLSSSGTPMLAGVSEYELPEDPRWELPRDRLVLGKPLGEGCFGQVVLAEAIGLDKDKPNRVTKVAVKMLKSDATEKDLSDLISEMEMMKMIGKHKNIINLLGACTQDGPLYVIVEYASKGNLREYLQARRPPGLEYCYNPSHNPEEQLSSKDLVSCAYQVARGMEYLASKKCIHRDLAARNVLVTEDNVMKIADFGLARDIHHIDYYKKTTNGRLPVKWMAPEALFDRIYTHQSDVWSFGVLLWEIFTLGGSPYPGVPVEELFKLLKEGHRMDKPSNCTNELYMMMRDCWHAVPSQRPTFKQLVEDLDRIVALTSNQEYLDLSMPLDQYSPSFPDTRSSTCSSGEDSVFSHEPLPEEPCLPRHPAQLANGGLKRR
Chain of ZIPK(h) (O43293 whole entry): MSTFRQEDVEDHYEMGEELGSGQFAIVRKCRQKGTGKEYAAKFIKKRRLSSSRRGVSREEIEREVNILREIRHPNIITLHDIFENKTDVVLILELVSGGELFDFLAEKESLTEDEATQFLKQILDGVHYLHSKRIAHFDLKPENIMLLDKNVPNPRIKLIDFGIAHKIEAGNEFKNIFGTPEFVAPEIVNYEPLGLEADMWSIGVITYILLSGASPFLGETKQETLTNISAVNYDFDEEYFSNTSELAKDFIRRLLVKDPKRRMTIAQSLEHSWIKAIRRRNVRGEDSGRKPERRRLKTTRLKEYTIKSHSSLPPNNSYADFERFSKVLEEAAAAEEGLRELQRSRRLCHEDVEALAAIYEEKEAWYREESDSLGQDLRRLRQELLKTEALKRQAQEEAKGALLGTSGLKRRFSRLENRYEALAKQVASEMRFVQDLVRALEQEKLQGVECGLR
Chain of LOK(h) (O94804 whole entry): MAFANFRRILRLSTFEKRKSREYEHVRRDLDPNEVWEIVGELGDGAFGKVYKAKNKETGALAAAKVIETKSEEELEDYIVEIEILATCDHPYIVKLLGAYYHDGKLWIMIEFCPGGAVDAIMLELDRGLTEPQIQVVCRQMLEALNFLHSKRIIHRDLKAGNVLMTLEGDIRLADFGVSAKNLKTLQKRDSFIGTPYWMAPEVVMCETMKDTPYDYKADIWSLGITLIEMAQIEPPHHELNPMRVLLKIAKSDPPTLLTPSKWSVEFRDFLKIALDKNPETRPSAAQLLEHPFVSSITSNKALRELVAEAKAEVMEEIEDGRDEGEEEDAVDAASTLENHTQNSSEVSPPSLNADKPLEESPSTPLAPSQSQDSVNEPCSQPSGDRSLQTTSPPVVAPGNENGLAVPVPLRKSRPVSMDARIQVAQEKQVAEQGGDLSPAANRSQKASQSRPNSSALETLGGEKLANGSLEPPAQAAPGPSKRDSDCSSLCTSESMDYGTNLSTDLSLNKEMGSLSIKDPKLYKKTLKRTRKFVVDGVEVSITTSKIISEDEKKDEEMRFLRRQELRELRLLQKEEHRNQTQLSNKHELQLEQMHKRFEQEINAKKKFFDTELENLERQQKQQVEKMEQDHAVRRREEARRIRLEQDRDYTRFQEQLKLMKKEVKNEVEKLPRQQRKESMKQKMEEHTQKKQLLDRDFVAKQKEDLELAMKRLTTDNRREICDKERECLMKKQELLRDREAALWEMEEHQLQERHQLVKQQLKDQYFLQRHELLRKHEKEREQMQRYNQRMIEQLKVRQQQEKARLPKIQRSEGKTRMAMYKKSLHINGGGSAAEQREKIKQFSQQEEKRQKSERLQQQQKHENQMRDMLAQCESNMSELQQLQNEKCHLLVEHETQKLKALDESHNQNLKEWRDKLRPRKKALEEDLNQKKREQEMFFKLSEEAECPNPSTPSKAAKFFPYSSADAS
Chain of CLK3(h) (P49761 whole entry): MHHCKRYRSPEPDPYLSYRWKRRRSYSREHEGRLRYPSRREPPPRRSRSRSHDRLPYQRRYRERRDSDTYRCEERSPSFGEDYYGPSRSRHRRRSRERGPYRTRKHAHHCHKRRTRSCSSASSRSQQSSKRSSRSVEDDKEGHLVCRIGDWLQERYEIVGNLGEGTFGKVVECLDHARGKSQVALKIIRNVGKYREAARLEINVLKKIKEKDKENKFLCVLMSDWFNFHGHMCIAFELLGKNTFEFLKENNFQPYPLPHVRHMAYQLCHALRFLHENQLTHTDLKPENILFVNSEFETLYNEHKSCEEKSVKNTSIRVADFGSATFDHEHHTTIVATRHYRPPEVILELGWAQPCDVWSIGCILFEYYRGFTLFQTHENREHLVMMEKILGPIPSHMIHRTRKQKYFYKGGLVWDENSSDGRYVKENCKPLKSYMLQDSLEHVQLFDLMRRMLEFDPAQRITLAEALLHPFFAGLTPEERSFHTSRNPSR
Chain of Tie2(Y897S)(h) (Q02763 23-1124 Y897S): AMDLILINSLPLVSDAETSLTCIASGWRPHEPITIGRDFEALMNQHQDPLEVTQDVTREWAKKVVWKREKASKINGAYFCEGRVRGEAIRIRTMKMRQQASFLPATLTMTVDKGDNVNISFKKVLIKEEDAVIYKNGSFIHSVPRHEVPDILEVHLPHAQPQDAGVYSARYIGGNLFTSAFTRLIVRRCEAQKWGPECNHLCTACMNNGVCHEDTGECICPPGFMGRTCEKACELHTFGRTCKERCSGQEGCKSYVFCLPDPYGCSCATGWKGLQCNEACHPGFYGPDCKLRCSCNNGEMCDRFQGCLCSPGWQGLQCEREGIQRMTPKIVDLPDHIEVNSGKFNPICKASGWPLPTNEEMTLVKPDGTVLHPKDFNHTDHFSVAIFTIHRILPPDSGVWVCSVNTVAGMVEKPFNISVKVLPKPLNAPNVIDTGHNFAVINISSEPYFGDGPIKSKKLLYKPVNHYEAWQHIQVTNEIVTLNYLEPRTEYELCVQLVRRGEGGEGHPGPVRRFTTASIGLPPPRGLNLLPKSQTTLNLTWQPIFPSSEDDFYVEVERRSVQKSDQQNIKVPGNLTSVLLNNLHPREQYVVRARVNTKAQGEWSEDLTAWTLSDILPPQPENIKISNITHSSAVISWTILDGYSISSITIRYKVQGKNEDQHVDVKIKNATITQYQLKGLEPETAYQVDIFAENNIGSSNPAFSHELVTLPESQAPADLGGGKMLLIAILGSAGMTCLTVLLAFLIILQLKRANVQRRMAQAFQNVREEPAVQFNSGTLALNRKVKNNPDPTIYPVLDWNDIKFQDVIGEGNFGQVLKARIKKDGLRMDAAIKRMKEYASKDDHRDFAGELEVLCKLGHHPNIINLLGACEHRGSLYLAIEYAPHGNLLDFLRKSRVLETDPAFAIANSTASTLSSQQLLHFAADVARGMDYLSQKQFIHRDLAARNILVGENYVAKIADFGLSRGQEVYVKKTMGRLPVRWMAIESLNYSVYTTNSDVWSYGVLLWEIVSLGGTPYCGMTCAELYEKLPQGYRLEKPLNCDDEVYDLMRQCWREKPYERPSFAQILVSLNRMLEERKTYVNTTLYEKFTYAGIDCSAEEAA

On to H-YARAAARQARAKALARQLGVAA-OH [MMI-0100], for which the activity at 100 µM at FGFR1(h) came to 120%; on DCAMKL2(h), 146%; at LOK(h), 37%; on ZIPK(h) it was 80%; at CLK3(h) it was 108%; on PKG1β(h) it was 71%. The activity at 100 µM at Ab1(T315I)(h) turned out to be 98%; at Tie2(Y897S)(h), 99%; on GCK(h), 98%.

In the case of “HRRIKAWLKKIKALARQLGVAA (Mammalian) [MMI-0500]”, the “% activity” value with FGFR1(h) is recorded as 18%; with DCAMKL2(h), 56%; with LOK(h), 7%; with ZIPK(h), 1%; in the experiment with CLK3(h), 76%; in the experiment with PKG1β(h), 24%. Moreover, the “% activity” value is recorded as 16% in the experiment with Ab1(T315I)(h), 80% with Tie2(Y897S)(h) and 30% in the experiment with GCK(h).

With “YARAAARQARAKALNRQLGVA (Mammalian) [MMI-0200]”, the “% activity” value with FGFR1(h) is on record as 97%; in the experiment with DCAMKL2(h), 131%; in the experiment with LOK(h) it was 67%; with ZIPK(h), 67%; in the experiment with CLK3(h) it was 76%; with PKG1β(h) it was 57%. Besides, the “% activity” value is reported as 108% in the experiment with Ab1(T315I)(h), 85% with Tie2(Y897S)(h) and 99% in the experiment with GCK(h).
